Six molecules from patent US20150259430A1 (MAB DISCOVERY, published 2015) can be followed below.

Substitutions are numbered along the chain they refer to.

Experiment [1] has as its target T1, recombinant Fc chimeric conjugate of human HER2 (human, UniProt P04626 23-652).
T1 construct: extracellular domain; Coated on the ELISA plate
Nature of the experiment: ELISA, coated antigen; supernatant IgG 51.60 ng/mL. On the technique in general: ELISA stands for enzyme-linked immunosorbent assay.
Experimental: (§1) Microtiter plates were coated with a) c-Met, IGF-1R, EGFR, HER2, and/or HER3 protein or b) EGFR, HER2, and/or HER3 (recombinant Fc chimeric conjugates of human c-Met, IGF-1R, EGFR, HER2, HER3 or IL12 Rβ1). After a blocking process, specific antibodies from B-cell supernatants bind to the targets and are then detected by a POD-labeled anti-rabbit IgG antibody. The IL12R binding was used as a counter-screen.
(§2) 12.5 μL 0.5 μg/mL protein in PBS was transferred to a microtiter plate incubated and washed 3× with Wash Buffer. 90 μL Block Buffer was added to each well, incubated and washed. 12.5 μL Standard Antibody (Anti-EGF-Receptor; HER2 Rabbit anti-Human Monoclonal (extracellular domain) (SP3) Antibody; HER3 (N-terminal) antibody; start concentration 2 μg/ml; IL-12Rbeta1 antibody start concentration 500 ng/ml) in 1:2 dilutions or sample diluted in ELISA buffer was added, incubated and washed. 12.5 μl 1:5000 POD-Antibody (Anti-rabbit IgG, peroxidase-linked species-specific Fab2 fragment (from donkey) (ECL); assay dilution: 1:5000) in Elisa Buffer was added, incubated and washed. 15 μl TMB was added and 15 μl HCl was added after sufficient development. Absorbance (Optical Density O.D.) was read at 450 nm/620 nm.

The target of experiment [2] is T2, recombinant Fc chimeric conjugate of human c-Met (human, UniProt P08581 25-932).
T2 construct: extracellular domain; Coated on the ELISA plate
T2 sequence (P08581 25-932, change not shown): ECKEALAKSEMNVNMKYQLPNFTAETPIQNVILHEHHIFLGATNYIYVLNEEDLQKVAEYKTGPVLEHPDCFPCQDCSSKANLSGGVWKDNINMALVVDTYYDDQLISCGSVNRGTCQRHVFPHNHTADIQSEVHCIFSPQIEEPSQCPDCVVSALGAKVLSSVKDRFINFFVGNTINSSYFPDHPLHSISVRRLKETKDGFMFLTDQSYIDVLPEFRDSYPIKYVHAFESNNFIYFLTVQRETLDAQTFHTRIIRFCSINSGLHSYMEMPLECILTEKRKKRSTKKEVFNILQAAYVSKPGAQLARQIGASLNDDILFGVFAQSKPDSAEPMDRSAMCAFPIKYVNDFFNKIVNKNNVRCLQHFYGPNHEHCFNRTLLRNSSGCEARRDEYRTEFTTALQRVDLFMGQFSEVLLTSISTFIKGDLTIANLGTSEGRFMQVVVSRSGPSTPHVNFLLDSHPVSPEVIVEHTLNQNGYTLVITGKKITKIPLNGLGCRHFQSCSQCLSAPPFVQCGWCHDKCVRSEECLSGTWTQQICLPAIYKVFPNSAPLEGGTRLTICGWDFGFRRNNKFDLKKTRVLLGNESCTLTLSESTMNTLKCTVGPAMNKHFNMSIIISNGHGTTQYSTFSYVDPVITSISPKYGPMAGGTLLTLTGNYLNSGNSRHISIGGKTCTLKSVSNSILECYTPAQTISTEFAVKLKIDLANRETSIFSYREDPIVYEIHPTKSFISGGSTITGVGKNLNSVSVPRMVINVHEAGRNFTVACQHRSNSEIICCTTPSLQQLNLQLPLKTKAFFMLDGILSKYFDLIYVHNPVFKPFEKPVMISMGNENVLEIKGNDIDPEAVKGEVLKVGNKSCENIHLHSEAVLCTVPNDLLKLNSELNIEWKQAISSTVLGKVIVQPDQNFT
The experiment is described as follows: ELISA, coated antigen; supernatant IgG 51.60 ng/mL.
Experimental: as §1, §2

For experiment [3], the target named is T3, recombinant Fc chimeric conjugate of human HER3 (human, UniProt P21860 20-643).
T3 construct: extracellular domain; Coated on the ELISA plate
T3 sequence (P21860 20-643, change not shown): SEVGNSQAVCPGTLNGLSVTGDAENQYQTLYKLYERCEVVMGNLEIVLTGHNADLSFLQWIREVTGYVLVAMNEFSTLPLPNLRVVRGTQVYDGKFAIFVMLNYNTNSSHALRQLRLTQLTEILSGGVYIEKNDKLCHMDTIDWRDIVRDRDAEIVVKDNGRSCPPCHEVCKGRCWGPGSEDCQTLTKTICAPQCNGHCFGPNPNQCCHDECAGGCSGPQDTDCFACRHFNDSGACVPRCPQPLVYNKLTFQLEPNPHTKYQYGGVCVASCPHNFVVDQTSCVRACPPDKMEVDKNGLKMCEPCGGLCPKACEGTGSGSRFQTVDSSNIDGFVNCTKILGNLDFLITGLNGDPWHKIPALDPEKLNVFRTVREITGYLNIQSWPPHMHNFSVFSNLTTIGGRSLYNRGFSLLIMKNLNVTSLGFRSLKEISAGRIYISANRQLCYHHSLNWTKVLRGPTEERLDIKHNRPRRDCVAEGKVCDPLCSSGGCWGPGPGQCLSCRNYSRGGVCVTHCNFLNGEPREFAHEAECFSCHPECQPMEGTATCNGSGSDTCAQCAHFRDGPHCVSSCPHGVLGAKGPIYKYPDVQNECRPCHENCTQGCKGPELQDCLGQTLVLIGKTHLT
Nature of the experiment: ELISA, coated antigen; supernatant IgG 51.60 ng/mL.
Experimental: as §1, §2

Experiment [4] deals with T1, recombinant Fc chimeric conjugate of …. Nature of the experiment: ELISA, coated antigen; supernatant IgG 183.28 ng/mL.
Experimental: as §1, §2
Experiment [5] has as its target T2, recombinant Fc chimeric conjugate of …. Described as above.
Experimental: as §1, §2
Experiment [6] has as its target T4, recombinant Fc chimeric conjugate of human EGFR (human, UniProt P00533 25-645).
T4 construct: extracellular domain; Coated on the ELISA plate; also called HER1; Her1
The description is as above.
Experimental: as §1, §2

In experiment [7] the target is T3, recombinant Fc chimeric conjugate of …. Described as above.
Experimental: as §1, §2
Experiment [8] has as its target T5, recombinant Fc chimeric conjugate of human IGF-1R (human, UniProt P08069 31-935).
T5 construct: extracellular domain; Coated on the ELISA plate
The experiment is described as follows: ELISA, coated antigen.
Experimental: as §1, §2

The target in experiment [9] is T1, recombinant Fc chimeric conjugate of …. Nature of the experiment: ELISA, coated antigen; supernatant IgG 69.04 ng/mL.
Experimental: as §1, §2
Experiment [10] addresses T2, recombinant Fc chimeric conjugate of …. The experiment is described as follows: ELISA, coated antigen; supernatant IgG 69.04 ng/mL.
Experimental: as §1, §2
In experiment [11] the target is T3, recombinant Fc chimeric conjugate of …. Nature of the experiment: ELISA, coated antigen; supernatant IgG 69.04 ng/mL.
Experimental: as §1, §2
For experiment [12], the target named is T1, recombinant Fc chimeric conjugate of …. Nature of the experiment: ELISA, coated antigen; supernatant IgG 1500.0 ng/ml.
Experimental: as §1, §2
Experiment [13] concerns the target T4, recombinant Fc chimeric conjugate of …. The experiment is described as above.
Experimental: as §1, §2
The target of experiment [14] is T3, recombinant Fc chimeric conjugate of …. The description is as above.
Experimental: as §1, §2
Experiment [15] deals with T1, recombinant Fc chimeric conjugate of …. The experiment is described as follows: ELISA, coated antigen; supernatant IgG 425.7 ng/ml.
Experimental: as §1, §2
Experiment [16] concerns the target T4, recombinant Fc chimeric conjugate of …. Nature of the experiment: ELISA, coated antigen; supernatant IgG 425.7 ng/ml.
Experimental: as §1, §2
In experiment [17] the target is T3, recombinant Fc chimeric conjugate of …. Nature of the experiment: ELISA, coated antigen; supernatant IgG 425.7 ng/ml.
Experimental: as §1, §2
For experiment [18], the target named is T1, recombinant Fc chimeric conjugate of …. Nature of the experiment: ELISA, coated antigen.
Experimental: as §1, §2
The target of experiment [19] is T2, recombinant Fc chimeric conjugate of …. Nature of the experiment: ELISA, coated antigen.
Experimental: as §1, §2
Experiment [20] addresses T4, recombinant Fc chimeric conjugate of …. The experiment is described as follows: ELISA, coated antigen.
Experimental: as §1, §2

T5 sequence (P08069 31-935, change not shown): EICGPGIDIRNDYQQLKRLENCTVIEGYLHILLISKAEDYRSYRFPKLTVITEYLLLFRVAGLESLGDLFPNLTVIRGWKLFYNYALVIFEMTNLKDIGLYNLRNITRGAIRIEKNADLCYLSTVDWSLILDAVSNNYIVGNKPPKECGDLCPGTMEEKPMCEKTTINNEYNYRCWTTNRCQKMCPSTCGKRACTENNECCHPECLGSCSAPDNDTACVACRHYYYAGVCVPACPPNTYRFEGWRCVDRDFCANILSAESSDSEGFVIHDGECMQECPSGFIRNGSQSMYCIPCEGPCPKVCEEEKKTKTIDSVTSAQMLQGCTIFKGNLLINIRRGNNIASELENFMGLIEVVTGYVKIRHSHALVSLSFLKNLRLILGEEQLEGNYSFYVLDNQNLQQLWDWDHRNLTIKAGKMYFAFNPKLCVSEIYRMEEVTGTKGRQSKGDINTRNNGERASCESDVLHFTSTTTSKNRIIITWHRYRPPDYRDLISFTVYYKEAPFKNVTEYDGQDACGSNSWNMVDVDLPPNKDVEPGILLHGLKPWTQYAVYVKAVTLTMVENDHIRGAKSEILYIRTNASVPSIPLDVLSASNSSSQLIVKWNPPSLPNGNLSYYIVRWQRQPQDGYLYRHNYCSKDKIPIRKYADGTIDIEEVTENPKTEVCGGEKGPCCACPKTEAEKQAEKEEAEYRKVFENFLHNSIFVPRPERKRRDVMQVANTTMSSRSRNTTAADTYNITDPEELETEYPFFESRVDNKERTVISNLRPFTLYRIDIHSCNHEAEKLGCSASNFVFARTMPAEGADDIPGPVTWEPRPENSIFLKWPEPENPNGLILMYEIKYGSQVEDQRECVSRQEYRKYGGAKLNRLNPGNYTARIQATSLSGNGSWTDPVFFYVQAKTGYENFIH

B1: Antibody 77.B08 (antibody, V domains shown)
VH: QEHLVESGGGLVQPEGSLTLTCTASGFDFSSDDMSWVRQAPGKGLEWIGVIGTGNGGTYYASWAKGRFTISKTSSTTVTLQMTSLTAADTATYFCAAFWGLWGPGTLVTVSS
VL: AQVLTQTASPVSTPVGGTVTITCQSSQSVYNNNRLAWFQQKPGQPPKLLIYTASTLASGVPSRFKGSGSGTQFTLTISDLECDDAATYYCAGGYSTDIYTFGGGTEVVVR
notes: rabbit IgG in B-cell supernatant
Regarding B1, the “Optical density (OD)” value in experiment [1] is 0.112 OD; in experiment [2] it was 0.144 OD; in experiment [3], 0.242 OD.

B2: Antibody B08 (antibody, V domains shown)
VH: B1 VH
VL: B1 VL with T13A, P14A, N33I, A53T, T55S, T96S
notes: as for B1
Turning to B2, the “Optical density (OD)” value in experiment [4] came to 0.402 OD; in experiment [5] it was 0.7 OD; in experiment [6], 0.405 OD; in experiment [7], 1.14 OD.

B3: Antibody D11 (antibody, V domains shown)
VH: B1 VH
VL: B1 VL with A8P, T13A, P14A, T22N, S28N, N31R
notes: as for B1
Regarding B3, the binding result in [8] is reported as “no binding (tested: OD 0.1 or lower)”. The “Optical density (OD)” value in [9] was 0.119 OD; in [10], 0.149 OD; in [11], 1.76 OD.

B4: Antibody 86 (antibody, V domains shown)
VH: QEQLKESGGGLVTPGGTLTLTCTVSGIDLSNYAMVWVRQAPGKGLEWIGIIYTTASTTYANWAKGRFTISKTSTTVDLKITSPTTEDTATYFCVRRSGWDGFDPWGPGTLVTVSS
VL: AQVLTQTPASVSAAVGGTVTINCQASESISSYLNWYQQKPGQPPKRLIYRTSTLASGVPSRFKGSGSGTDFTLTISGVECADAATYYCQQDWSSSDVENVFGGGTEVVVK
notes: as for B1
For the molecule B4, the results for the “Optical density (OD)” value in experiment [12], in experiment [13] and in experiment [14] were 1.8 OD, 1.1 OD and 0.8 OD, respectively.

B5: Antibody 65 (antibody, V domains shown)
VH: QSVEESGGRLVTPGTPLTLTCTVSGFSLNNYYMTWVRQAPGKGLEWIGVISGSATTYYASWAKGRFTISQTSTTVDLRITSPTTEDTATYFCARSLTADIIDYYNIWGPGTLVTVSL
VL: DVVMTQTPASVSEPVGGTVTIKCQASEDINALLAWYQQKPGQPPKLLIYVASYLQSGVPSRFKGSGSGTEYTLTISGVQCADAATYYCQSAYDSSGYVGAFGGGTEVVVK
notes: as for B1
In the case of B5, the “Optical density (OD)” value in [15] stood at 2.9 OD; in experiment [16], 2.5 OD; in experiment [17], 1.9 OD.

B6: Antibody 077.D03 (antibody, V domains shown)
VH: QSVEESGGRLVTPGTPLTLTCTVSGIDLSSNAMSWVRQAPGKGLEWIGFISSSGTTYYASWAKGRFTISKTSTTVDLKITSPTTEDTATYFCTRFDLWGQGTLVTVSS
VL: DVVMTQTPASVSEPVGGTVTINCQASQSITTALAWYQQKPGQPPKLLIYKASTLASGVSSRFKGSGSGAEYTLTISDLECADAATYYCQCTGYDTSYVGGFGGGTEVVVK
notes: as for B1
Turning to B6, the binding result in [18], in [19] and in [20] was “no binding (tested: OD 0.1 or lower)” each time.
